Patent US20070105771A1 (Y S THERAPEUTICS, published 2007)
Where a chain is given by its changes, count along the chain named.

B1: Fab comprising X385 VH and CM03 VL (Fab, V domains shown)
VH: EVQLVQSGGGVKQPGETLRLTCTASGFSLTTYGVHWVRQAPGKGLEWVGVIWGDGRTDYDAAFMSRVTISKDTSKSTAYLQMNSLRAEDTAVYYCMRNRHDWFDYWGQGTTVTVSS
VL: DIQMTQSPSSLSASLGDRVTITCSASQGIRNSLNWYQQKPDGAVKLLIYYSSNLHSGVPSRFSGSGSGTDFSLTISNLEPEDIATYYCQQSIKLPFTFGSGTKLEIK
notes: Fab made in E. coli
B2: Fab comprising X384 VH and CM03 VL (Fab, V domains shown)
VH: B1 VH with Q6E, G9A, E16G, A78V
VL: B1 VL
notes: Fab made in E. coli
B3: Fab comprising X386 VH and CM03 VL (Fab, V domains shown)
VH: B1 VH with Q6E, G9A, K12E, E16G, V48M, K71R, M82L, M96V
VL: B1 VL
notes: Fab made in E. coli
B4: Fab comprising X388 VH and CM03 VL (Fab, V domains shown)
VH: B1 VH with V11L, T21S, F27Y, V48M, A61S, A62S, M82L, M96T
VL: B1 VL
notes: Fab made in E. coli
B5: Fab comprising X387 VH and CM03 VL (Fab, V domains shown)
VH: EVQLVESGAELVQPGGSLRLTCKASGFTLNTYGVHWVRQAPGKGLEWMGVIWGGGRTDYDASFMSRVTISKDNSKNTAYLQLNSLRAEDTAVYYCTRSRHDWFDYWGQGTTVTVSS
VL: B1 VL
notes: Fab made in E. coli
B6: Fab X396 (X385 VH and X380 VL) (Fab, V domains shown)
VH: B1 VH
VL: EIEMTQSPSSLSVSAGERATISCSASQDIRNSLNWYQQKPGQAPRLLIYYSSNLHTGVPARFSGSGSGTDFTLTISRLEPEDVAIYYCQQSNKLPLTFGSGTKVEIK
notes: Fab made in E. coli
B7: Fab X395 (X384 VH and X380 VL) (Fab, V domains shown)
VH: B1 VH with Q6E, G9A, E16G, A78V
VL: B6 VL
notes: Fab made in E. coli
B8: Fab X399 (X399 VH and X380 VL) (Fab, V domains shown)
VH: B1 VH with T30S, A78V
VL: B6 VL
notes: Fab made in E. coli
B9: Fab X431 (X420 VH and X380 VL) (Fab, V domains shown)
VH: B1 VH with Q6E, T30S, A78V
VL: B6 VL
notes: also called Fab X420
B10: Fab X430 (X399 VH and X394 VL) (Fab, V domains shown)
VH: B1 VH with T30S, A78V
VL: DILMTQSPSSLSASPGDRVTISCRASQDIRNNLNWYQQKPGQAPRLLIYYSSNLQTGVPARFSGSGSGTDFTLTISRLEPEDFAAYYCQQSIKLPLTFGSGTKVEIK
notes: also called Fab X429
B11: Fab X389 (X384 VH and X376 VL) (Fab, V domains shown)
VH: B1 VH with Q6E, G9A, E16G, A78V
VL: B10 VL with Q55H, T56S, A60D
notes: Fab made in E. coli
B12: Fab X390 (X385 VH and X376 VL) (Fab, V domains shown)
VH: B1 VH
VL: B10 VL with Q55H, T56S, A60D
notes: Fab made in E. coli
B13: Fab comprising X377 VL and CM03 VH (Fab, V domains shown)
VH: QVKLQESGPGLVQPSQTLSITCTVSGFSLTTYGVHWVRQSPGKGLEWLGVIWGGGRTDYDAAFISRLSISKDNSKSQVFFKMNSLQANDTAIYYCVRNRHDWFDYWGQGTTVTVSS
VL: B10 VL with D1E, L3E, M4L, A13V, P15L, R24S, F83V, L96F
notes: Fab made in E. coli; also called X377 Fab
B14: Fab comprising X376 VL and CM03 VH (Fab, V domains shown)
VH: B13 VH
VL: B10 VL with Q55H, T56S, A60D
notes: Fab made in E. coli
B15: Fab comprising X380 VL and CM03 VH (Fab, V domains shown)
VH: B13 VH
VL: B6 VL
notes: Fab made in E. coli
B16: Fab comprising X381 VL and CM03 VH (Fab, V domains shown)
VH: B13 VH
VL: B6 VL with M4L, A15P, E17D, A19V, D28G, E79Q, P80A, V83F, I85T, N92I
notes: Fab made in E. coli
B17: Fab X391 (X388 VH and X376 VL) (Fab, V domains shown)
VH: B1 VH with V11L, T21S, F27Y, V48M, A61S, A62S, M82L, M96T
VL: B10 VL with Q55H, T56S, A60D
notes: Fab made in E. coli
B18: Fab X392 (X384 VH and X379 VL) (Fab, V domains shown)
VH: B1 VH with Q6E, G9A, E16G, A78V
VL: DILLTQSPSSLSATPGERATITCRASQGIRNNLNWYQQKPGQAPRLLIYYSSNLQSGVPSRFSGSGSGTDFTLTISRLQPEDVAAYYCQQSIKLPFTFGSGTKVEIK
notes: Fab made in E. coli
B19: Fab X393 (X385 VH and X379 VL) (Fab, V domains shown)
VH: B1 VH
VL: B18 VL
notes: Fab made in E. coli
B20: Fab X394 (X384 VH and X394 VL) (Fab, V domains shown)
VH: B1 VH with Q6E, G9A, E16G, A78V
VL: B10 VL
notes: Fab made in E. coli
B21: Fab comprising X378 VL and CM03 VH (Fab, V domains shown)
VH: B13 VH
VL: DIEMTQSPSSLSASAGERVTISCRASQGIRNSLNWYQQKPGQAPRLLIYYSSNLQTGVPSRFSGSGSGTDFTLTISRLQAEDFATYYCQQSNKLPFTFGSGTKVEIK
notes: Fab made in E. coli
B22: Fab comprising X379 VL and CM03 VH (Fab, V domains shown)
VH: B13 VH
VL: B18 VL
notes: Fab made in E. coli
B23: rhuMAb 410 (antibody, human IgG1, V domains shown)
VH: B1 VH with V11L, T21S, F27Y, V48M, A61S, A62S, M82L, M96T
VL: DILMTQSPSSLSASPGDRVTISCRASQDIRNNLNWYQQKPGQAPRLLIYYSSNLHSGVPDRFSGSGSGTDFTLTISRLEPEDFAAYYCQQSIKLPLTFGSGTKVEIKR

molecular target: T1, Purified recombinant human CD26 (rhDipeptidyl peptidase IV), R&D Systems CAT #1180-SE (human, UniProt P27487 29-766); assay: SPR (Biacore), Fab
T1 construct: Bought recombinant protein; also called hu-CD26; soluble human CD26
T1 sequence (P27487 29-766 limits assumed): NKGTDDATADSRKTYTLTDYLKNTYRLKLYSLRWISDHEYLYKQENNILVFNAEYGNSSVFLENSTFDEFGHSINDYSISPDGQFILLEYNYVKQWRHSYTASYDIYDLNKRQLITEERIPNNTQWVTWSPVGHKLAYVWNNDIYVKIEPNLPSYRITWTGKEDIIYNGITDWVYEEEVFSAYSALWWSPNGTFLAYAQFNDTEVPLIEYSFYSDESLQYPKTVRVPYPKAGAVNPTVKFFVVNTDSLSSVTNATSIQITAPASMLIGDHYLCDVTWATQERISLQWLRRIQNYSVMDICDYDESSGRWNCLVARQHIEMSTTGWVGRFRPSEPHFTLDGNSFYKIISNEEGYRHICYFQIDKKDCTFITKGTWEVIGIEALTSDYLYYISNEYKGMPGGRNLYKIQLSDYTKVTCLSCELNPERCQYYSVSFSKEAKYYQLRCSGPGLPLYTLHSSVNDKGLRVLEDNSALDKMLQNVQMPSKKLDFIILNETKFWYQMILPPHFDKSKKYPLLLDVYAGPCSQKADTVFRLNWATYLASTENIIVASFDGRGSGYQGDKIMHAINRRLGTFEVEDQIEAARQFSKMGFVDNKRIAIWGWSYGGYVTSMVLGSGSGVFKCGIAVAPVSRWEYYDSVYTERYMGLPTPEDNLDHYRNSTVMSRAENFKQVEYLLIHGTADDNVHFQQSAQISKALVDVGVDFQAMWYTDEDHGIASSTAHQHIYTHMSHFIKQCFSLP
Description: (§1) Fabs produced in E. coli as described below were diluted in PBS in a concentration of ˜0.5 μM for the assay. A typical recording included a 3 minute period of injection of the Fab followed by a period of 15 minutes of dissociation, and analysis was performed based on the raw data of the binding curves accordingly.

Row | Binder | Kd [nM] | koff [s⁻¹] | kon [M⁻¹ s⁻¹]
1 | B1 | 1.47 | 0.000375 | 256000
2 | B2 | 1.19 | 0.000312 | 262000
3 | B3 | 2.71 | 0.000498 | 184000
4 | B4 | 2.98 | 0.000698 | 235000
5 | B5 | 51.1 | 0.01 | 196000

molecular target: T1, Purified recombinant human CD26 …; assay: SPR (Biacore), Fab; remark: another data set of the same source

Row | Binder | Kd [nM] | ratio of the Kd of CM03 Fab to the Kd of individual clone
6 | B6 | 2.53 | –
7 | B7 | 3.26 | 0.5
8 | B8 | 2.85 | –
9 | B9 | 0.92 | –
10 | B10 | 1.19 | 1.37
11 | B11 | 0.38 | 4.29
12 | B12 | 0.96 | 1.7
13 | B13 | 1.9 | –
14 | B14 | 2.3 | –
15 | B15 | 2.3 | –
16 | B16 | 2.1 | –
17 | B17 | 2.12 | –
18 | B18 | 0.24 | 6.79
19 | B19 | 0.33 | 4.94
20 | B20 | 0.58 | 2.81
21 | B21 | 2.9 | –
22 | B22 | 1.2 | –
23 | B1 | 1.5 | –
24 | B2 | 1.2 | –
25 | B3 | 2.7 | –
26 | B4 | 3 | –
27 | B5 | 51 | –

molecular target: T1, Purified recombinant human CD26 …; assay: SPR (Biacore), CD26 preoccupied by the Fab; competitor 14D10 ascites
Description: A specificity analysis of selected Fabs comprising pairs of variant VH and VL sequences was done. […] The analysis was done using Biacore® as described in Example 1.

Row | Binder | percent decrease in binding of 14D10 to CD26 [%]
28 | B6 | ≥ 80
29 | B7 | ≥ 80
30 | B11 | ≥ 80
31 | B12 | ≥ 80
32 | B17 | ≥ 80
33 | B18 | ≥ 80
34 | B19 | ≥ 80

molecular target: T1, Purified recombinant human CD26 …; assay: SPR (Biacore), Fab; remark: another data set of the same source

Row | Binder | Kd [nM]
35 | B6 | 2.53
36 | B7 | 3.26
37 | B8 | 2.85
38 | B9 | 0.92
39 | B10 | 1.19
40 | B11 | 0.38
41 | B12 | 0.96
42 | B17 | 2.12
43 | B18 | 0.24
44 | B19 | 0.33
45 | B20 | 0.58

molecular target: T1, Purified recombinant human CD26 …; assay: SPR (Biacore), Fab; remark: another data set of the same source
Description: as §1
The CD26 binding partner was as shown below.

Row | Binder | Kd [nM] | koff [s⁻¹] | kon [M⁻¹ s⁻¹]
46 | B13 | 1.88 | 0.000596 | 317000
47 | B14 | 2.31 | 0.000596 | 258000
48 | B15 | 2.33 | 0.000687 | 294000
49 | B16 | 2.1 | 0.000601 | 293000
50 | B21 | 2.92 | 0.00083 | 285000
51 | B22 | 1.16 | 0.00067 | 578000

molecular target: human CD26 on the cell surface (human, UniProt P27487 1-766); assay: cell-based or functional assay
Sequence (P27487 whole entry): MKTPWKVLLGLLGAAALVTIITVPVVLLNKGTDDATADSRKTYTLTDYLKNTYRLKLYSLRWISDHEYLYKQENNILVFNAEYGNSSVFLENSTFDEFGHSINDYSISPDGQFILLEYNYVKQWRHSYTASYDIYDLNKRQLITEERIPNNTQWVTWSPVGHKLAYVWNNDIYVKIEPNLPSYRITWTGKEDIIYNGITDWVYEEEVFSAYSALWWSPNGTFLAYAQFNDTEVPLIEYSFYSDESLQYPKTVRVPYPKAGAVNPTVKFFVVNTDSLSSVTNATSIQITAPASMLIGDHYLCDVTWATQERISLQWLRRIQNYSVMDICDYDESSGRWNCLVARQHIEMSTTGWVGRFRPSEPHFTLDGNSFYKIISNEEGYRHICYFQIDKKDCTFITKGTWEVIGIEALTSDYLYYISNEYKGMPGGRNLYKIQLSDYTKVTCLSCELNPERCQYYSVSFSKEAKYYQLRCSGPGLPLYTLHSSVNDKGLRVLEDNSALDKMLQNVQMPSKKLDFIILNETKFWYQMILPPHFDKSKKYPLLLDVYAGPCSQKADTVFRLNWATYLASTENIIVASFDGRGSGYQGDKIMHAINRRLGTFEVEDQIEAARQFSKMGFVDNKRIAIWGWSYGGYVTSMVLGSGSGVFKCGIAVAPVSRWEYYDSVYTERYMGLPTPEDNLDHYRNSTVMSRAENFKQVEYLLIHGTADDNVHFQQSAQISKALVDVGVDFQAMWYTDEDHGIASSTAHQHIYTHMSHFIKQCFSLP

Row | Binder | percent inhibition, MTT assay, Jurkat CD26+ cells, 0.05 ug/ml [%] | percent inhibition, MTT assay, Jurkat CD26+ cells, 0.25 ug/ml [%] | percent inhibition, MTT assay, Jurkat CD26+ cells, 0.5 ug/ml [%] | percent inhibition, MTT assay, Jurkat CD26+ cells, 2.5 ug/ml [%] | percent inhibition, MTT assay, Jurkat CD26+ cells, 5 ug/ml [%]
52 | B23 | 4 | 10.7 | 14 | 27.5 | 33.5
